Experimental data: US6319685A (Unigene Laboratories, Inc., priority 1987, dated 2001)
Where two headings read alike, the source gives them in different places. No end group written: not given here.

T1: alpha-amidating enzyme (Rattus norvegicus, UniProt P14925)
T1 sequence (P14925 36-976): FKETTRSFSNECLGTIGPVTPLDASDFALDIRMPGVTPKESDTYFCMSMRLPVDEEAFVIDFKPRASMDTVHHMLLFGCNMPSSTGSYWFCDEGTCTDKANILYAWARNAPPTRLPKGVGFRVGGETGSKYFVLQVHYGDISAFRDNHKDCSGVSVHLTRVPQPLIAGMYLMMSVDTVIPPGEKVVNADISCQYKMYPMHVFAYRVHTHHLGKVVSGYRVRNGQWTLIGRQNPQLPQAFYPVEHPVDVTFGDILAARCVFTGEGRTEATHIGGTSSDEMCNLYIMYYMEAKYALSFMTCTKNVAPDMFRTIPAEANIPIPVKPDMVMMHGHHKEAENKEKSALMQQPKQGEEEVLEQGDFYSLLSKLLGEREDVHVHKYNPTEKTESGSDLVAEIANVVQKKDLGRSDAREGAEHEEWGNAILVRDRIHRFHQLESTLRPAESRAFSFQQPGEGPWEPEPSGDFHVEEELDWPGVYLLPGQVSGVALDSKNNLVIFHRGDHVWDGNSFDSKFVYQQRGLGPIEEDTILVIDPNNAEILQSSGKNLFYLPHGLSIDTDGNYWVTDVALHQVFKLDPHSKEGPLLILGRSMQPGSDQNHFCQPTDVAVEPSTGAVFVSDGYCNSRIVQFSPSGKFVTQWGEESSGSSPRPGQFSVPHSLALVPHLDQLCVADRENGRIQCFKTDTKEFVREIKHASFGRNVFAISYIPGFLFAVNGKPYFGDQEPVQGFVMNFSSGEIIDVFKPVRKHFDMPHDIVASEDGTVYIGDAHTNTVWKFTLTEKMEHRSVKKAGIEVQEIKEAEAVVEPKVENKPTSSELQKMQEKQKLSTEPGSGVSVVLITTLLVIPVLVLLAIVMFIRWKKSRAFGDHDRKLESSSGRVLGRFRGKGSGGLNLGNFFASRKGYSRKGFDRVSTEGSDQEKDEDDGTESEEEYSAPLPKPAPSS


Assays:
[1] = biological activity of amidated recombinant hormones versus synthetic hormone
[2] = specific alpha-amidating activity, conversion of Dansyl-D-Tyr-Val-Gly to Dansyl-D-Tyr-Val-CONH2; type: biochemical; details: homogeneous peak III enzyme, rat MTC tumor
Procedure: These and other objects will become apparent from a thorough reading of the present disclosure. […] All specific activity units set forth herein are based upon the conversion of Dansyl-D-Try-Val-Gly-COOH to Dansyl-D-Tyr-Val-CONH2. One mU is defined as the amount of activity needed to convert one nanomole (nmole) of Dansyl-D-Tyr-Val-Gly-COOH to one nmole of Dansyl-D-Tyr-Val-CONH2 per minute at 37° C. and pH 7.0 in the presence of ascorbate ions at a concentration of 3 mM (based on total reaction mixture including enzyme, substrate, co-factors, etc.), molecular oxygen in a molar excess over substrate and a concentration of cupric ions effective to maximize activity (usually about 2 μM depending on the state of purity of the enzyme).
Each purification step can be monitored for both protein content and the level of alpha-amidation activity. This information is used to calculate the specific activity of the enzyme which serves as an indicator of the relative purity of the enzyme.
Sephacryl S-300 (Pharmacia) was equilibrated in 50 mM Tris HCl pH 7.0 and poured into a K 50/100 column (Pharmacia) according to the manufacturer's instructions. The bed volume of the column was approximately 1.3 liters. The Sample was loaded onto the column in a volume representing approximately 3 percent of the bed volume of the column. Proteins were eluted from the column in 50 mM Tris HCl pH 7.0 at a flow rate of approximately 2 ml per minute.
The reaction mixture for the conversion of the monodansyl substrate contained:
The samples were prepared in duplicate and incubated at 37° C. for 10, 20 and 30 minutes time periods. The enzymatic reaction was halted by the addition of 10 ul 500 mM EDTA.

[3] = pH optimum of alpha-amidating enzyme; type: biochemical; details: rat MTC tumor enzyme, N dansyl Tyr-Val-Gly substrate
Procedure: 2. The optimum pH for the activity of the enzyme was determined to be pH 5.0-5.5 using N dansyl Tyr-Val-Gly as the substrate (FIG. XVI). However, due to the enhanced stability of the enzyme at neutral pH, it may be beneficial to carry out the amidation reaction at such pH.

[4] = iso-electric point of alpha-amidating enzyme; type: physicochemical
[5] = biological target: T1, alpha-amidating enzyme; assay: co-factor requirement of alpha-amidating enzyme for maximal activity; type: biochemical
[6] = cited from earlier work

pH optimum [3]	Molecule	biological activity (and characterization) compared with synthetic hormone [1]	iso-electric point (pI) [4]	other results
	recombinant hGHRF: recombinant, alpha-amidated human growth hormone releasing factor (YADAIFTNSYRKVLGQLSARKLLQDIMSRQQGESNQERGARARL-NH2; UniProt P01286 32-75, looked up)	indistinguishable from synthetic hGHRF		
	recombinant human calcitonin: purified alpha-amidated recombinant human calcitonin (CGNLSTCMLGTYTQDFNKFHTFPQTAIGVGAP-NH2; ends and bridges not checked; UniProt P01258 85-116, looked up)	indistinguishable from synthetic human calcitonin		
5.0-5.5	peak III enzyme (MTC tumor): MTC tumor alpha-amidating enzyme peak eluting at 220 mM NaCl from Mono Q pH 6.0, purified to homogeneity (protein, UniProt P14925 36-976, looked up, Mono Q peak III form) Peptidylglycine …: FKETTRSFSNECLGTIGPVTPLDASDFALDIRMPGVTPKESDTYFCMSMRLPVDEEAFVIDFKPRASMDTVHHMLLFGCNMPSSTGSYWFCDEGTCTDKANILYAWARNAPPTRLPKGVGFRVGGETGSKYFVLQVHYGDISAFRDNHKDCSGVSVHLTRVPQPLIAGMYLMMSVDTVIPPGEKVVNADISCQYKMYPMHVFAYRVHTHHLGKVVSGYRVRNGQWTLIGRQNPQLPQAFYPVEHPVDVTFGDILAARCVFTGEGRTEATHIGGTSSDEMCNLYIMYYMEAKYALSFMTCTKNVAPDMFRTIPAEANIPIPVKPDMVMMHGHHKEAENKEKSALMQQPKQGEEEVLEQGDFYSLLSKLLGEREDVHVHKYNPTEKTESGSDLVAEIANVVQKKDLGRSDAREGAEHEEWGNAILVRDRIHRFHQLESTLRPAESRAFSFQQPGEGPWEPEPSGDFHVEEELDWPGVYLLPGQVSGVALDSKNNLVIFHRGDHVWDGNSFDSKFVYQQRGLGPIEEDTILVIDPNNAEILQSSGKNLFYLPHGLSIDTDGNYWVTDVALHQVFKLDPHSKEGPLLILGRSMQPGSDQNHFCQPTDVAVEPSTGAVFVSDGYCNSRIVQFSPSGKFVTQWGEESSGSSPRPGQFSVPHSLALVPHLDQLCVADRENGRIQCFKTDTKEFVREIKHASFGRNVFAISYIPGFLFAVNGKPYFGDQEPVQGFVMNFSSGEIIDVFKPVRKHFDMPHDIVASEDGTVYIGDAHTNTVWKFTLTEKMEHRSVKKAGIEVQEIKEAEAVVEPKVENKPTSSELQKMQEKQKLSTEPGSGVSVVLITTLLVIPVLVLLAIVMFIRWKKSRAFGDHDRKLESSSGRVLGRFRGKGSGGLNLGNFFASRKGYSRKGFDRVSTEGSDQEKDEDDGTESEEEYSAPLPKPAPSS		4.8	specific activity [2]: 2,100 mU/mg protein; Cu++ required for maximal activity [5]: ≤ 0.1 µM
5.0-5.5	peak II enzyme (MTC tumor): MTC tumor alpha-amidating enzyme peak eluting at 200 mM NaCl from Mono Q pH 6.0 (protein, UniProt P14925 36-976, looked up, Mono Q peak II form) Peptidylglycine …: FKETTRSFSNECLGTIGPVTPLDASDFALDIRMPGVTPKESDTYFCMSMRLPVDEEAFVIDFKPRASMDTVHHMLLFGCNMPSSTGSYWFCDEGTCTDKANILYAWARNAPPTRLPKGVGFRVGGETGSKYFVLQVHYGDISAFRDNHKDCSGVSVHLTRVPQPLIAGMYLMMSVDTVIPPGEKVVNADISCQYKMYPMHVFAYRVHTHHLGKVVSGYRVRNGQWTLIGRQNPQLPQAFYPVEHPVDVTFGDILAARCVFTGEGRTEATHIGGTSSDEMCNLYIMYYMEAKYALSFMTCTKNVAPDMFRTIPAEANIPIPVKPDMVMMHGHHKEAENKEKSALMQQPKQGEEEVLEQGDFYSLLSKLLGEREDVHVHKYNPTEKTESGSDLVAEIANVVQKKDLGRSDAREGAEHEEWGNAILVRDRIHRFHQLESTLRPAESRAFSFQQPGEGPWEPEPSGDFHVEEELDWPGVYLLPGQVSGVALDSKNNLVIFHRGDHVWDGNSFDSKFVYQQRGLGPIEEDTILVIDPNNAEILQSSGKNLFYLPHGLSIDTDGNYWVTDVALHQVFKLDPHSKEGPLLILGRSMQPGSDQNHFCQPTDVAVEPSTGAVFVSDGYCNSRIVQFSPSGKFVTQWGEESSGSSPRPGQFSVPHSLALVPHLDQLCVADRENGRIQCFKTDTKEFVREIKHASFGRNVFAISYIPGFLFAVNGKPYFGDQEPVQGFVMNFSSGEIIDVFKPVRKHFDMPHDIVASEDGTVYIGDAHTNTVWKFTLTEKMEHRSVKKAGIEVQEIKEAEAVVEPKVENKPTSSELQKMQEKQKLSTEPGSGVSVVLITTLLVIPVLVLLAIVMFIRWKKSRAFGDHDRKLESSSGRVLGRFRGKGSGGLNLGNFFASRKGYSRKGFDRVSTEGSDQEKDEDDGTESEEEYSAPLPKPAPSS		approximately 5.8	
	alpha-amidating enzyme from rat pituitaries: alpha-amidating enzyme partially purified from rat pituitaries (protein, UniProt P14925 36-976, looked up, partially purified) Peptidylglycine …: FKETTRSFSNECLGTIGPVTPLDASDFALDIRMPGVTPKESDTYFCMSMRLPVDEEAFVIDFKPRASMDTVHHMLLFGCNMPSSTGSYWFCDEGTCTDKANILYAWARNAPPTRLPKGVGFRVGGETGSKYFVLQVHYGDISAFRDNHKDCSGVSVHLTRVPQPLIAGMYLMMSVDTVIPPGEKVVNADISCQYKMYPMHVFAYRVHTHHLGKVVSGYRVRNGQWTLIGRQNPQLPQAFYPVEHPVDVTFGDILAARCVFTGEGRTEATHIGGTSSDEMCNLYIMYYMEAKYALSFMTCTKNVAPDMFRTIPAEANIPIPVKPDMVMMHGHHKEAENKEKSALMQQPKQGEEEVLEQGDFYSLLSKLLGEREDVHVHKYNPTEKTESGSDLVAEIANVVQKKDLGRSDAREGAEHEEWGNAILVRDRIHRFHQLESTLRPAESRAFSFQQPGEGPWEPEPSGDFHVEEELDWPGVYLLPGQVSGVALDSKNNLVIFHRGDHVWDGNSFDSKFVYQQRGLGPIEEDTILVIDPNNAEILQSSGKNLFYLPHGLSIDTDGNYWVTDVALHQVFKLDPHSKEGPLLILGRSMQPGSDQNHFCQPTDVAVEPSTGAVFVSDGYCNSRIVQFSPSGKFVTQWGEESSGSSPRPGQFSVPHSLALVPHLDQLCVADRENGRIQCFKTDTKEFVREIKHASFGRNVFAISYIPGFLFAVNGKPYFGDQEPVQGFVMNFSSGEIIDVFKPVRKHFDMPHDIVASEDGTVYIGDAHTNTVWKFTLTEKMEHRSVKKAGIEVQEIKEAEAVVEPKVENKPTSSELQKMQEKQKLSTEPGSGVSVVLITTLLVIPVLVLLAIVMFIRWKKSRAFGDHDRKLESSSGRVLGRFRGKGSGGLNLGNFFASRKGYSRKGFDRVSTEGSDQEKDEDDGTESEEEYSAPLPKPAPSS			enzyme activity outside pH 6.5-7.5 ([6]; pH levels below 6.5 or above 7.5): declined rapidly; pH optimum ([6]; pituitary, partially purified): 7
